How the values were obtained:
SBP-tagged HER3-ECD = biological target: T1, SBP-tagged HER3-ECD (human, UniProt P21860 20-643); test: time-resolved fluorescence, 10 nM Eu-labelled Heregulin-beta on plate-bound SBP-tagged HER3-ECD
T1 construct: not shown: SBP tag
Protocol: On the next day the wells were washed three times with washing buffer (PBS+0.05% Tween-20) and blocked with PBS containing 1% BSA for one hour. After another three washes with washing buffer, 40 μl antibody solution (in Delfia Binding Buffer) was added to each well as a 2× stock of the desired final concentrations (10⁻³ to 10³ nM, alternatively 10⁻⁴ to 10² nM). Immediately […] of 20 nM Europium-labeled Heregulin-beta (PeproTech, Cat. #100-03) was added to achieve a final concentration of 10 nM. The plates were incubated on a shaker at room temperature for two hours. Following three washes with Delfia Wash Buffer, Delfia Enhancement Solution was added and incubated on a shaker for 15 minutes (light protected). Finally, the plates were measured in a Tecan Infinite F200 reader using a time-resolved fluorescence measurement protocol.

[1] = biological target: T2, human recombinant HER3 Extracellular Domain (HER3 ECD) (human, UniProt P21860 20-643); test: SPR Biacore T200, antibody captured, HER3-ECD as analyte, 37 C
T2 construct: 68 kDa; also called human-Her3-ECD

[2] = biological target: T3, HER1 (EGFR) ECD peptide hairpin, overlapping immobilized 15-mer peptides (human, UniProt P00533 265-283, limits assumed); test: CelluSpots array of overlapping 15-mer peptides
T3 construct: domain: peptide hairpin (β-hairpin); CelluSpots 15-mer library; cysteines replaced by serines; also called hairpin motive in EGFR
T3 peptide (looked up): PPLMLYNPTTYQMDVNPEG

[3] = biological target: T4, HER2 ECD peptide hairpin, overlapping immobilized 15-mer peptides (human, UniProt P04626 269-287, limits assumed); test: CelluSpots array of overlapping 15-mer peptides
T4 construct: domain: peptide hairpin (β-hairpin); CelluSpots 15-mer library; cysteines replaced by serines; also called hairpin motive in the HER2 ECD
T4 peptide (looked up): PALVTYNTDTFESMPNPEG

[4] = biological target: T5, HER3 ECD-HRG complex (Heregulin-activated Her-3 ECD) (human, UniProt P21860 20-643); test: SPR, 90 nM Heregulin*Her-3 ECD complex on captured antibody
T5 construct: receptor-ligand complex made by preincubating HER3 ECD with a five-fold molar excess of Heregulin; also called Heregulin/Her-3 ECD; Heregulin-complexed Her-3 ECD

[5] = biological target: T6, HER1, full length, on transfected HEK293 cells (human, UniProt P00533 25-1210); test: IHC on HEK293 cells transiently transfected with full length HER1
T6 construct: HEK293 transiently transfected with a plasmid coding for full length HER1; also called EGFR
Protocol: (§1) All selected clones were tested for reactivity and specificity in IHC. […] After an additional fixation in formalin overnight the Agarose blocks were embedded in paraffin. Untransfected HEK293 cells were used as negative controls and treated accordingly to the transfected cells. After paraffin embedding 3 μm thin sections were prepared using a microtome. The sections were mounted on glass microscopy slides and dried for 2 h. All further steps of the immunohistochemical staining procedure were carried out using a Ventana Benchmark XT. The slides were dewaxed and antigen retrieval was performed by applying heat for 1 hour. For antigen retrieval the Ventana buffer CC1 was used. The antibodies were used at a concentration of 1 μg/ml. For the detection of bound antibody the Ventana UltraView detection kit was used.

[6] = biological target: T7, HER4, full length, on transfected HEK293 cells (human, UniProt Q15303 26-1308); test: IHC on HEK293 cells transiently transfected with full length HER4
Protocol: as §1

[7] = biological target: T8, human HER1 Extracellular Domain (HER1 ECD) (human, UniProt P00533 25-645); test: ELISA, antigen coated, hybridoma supernatant
T8 construct: also called EGFR ECD
Protocol: (§2) For the ELISA screening an antigen down format was used. […] Hybridoma Supernatant was added to the plates and incubated for 1 h at room temperature. Bound antibody was detected with a HRP-labeled F(ab′)₂ goat anti-mouse Fcγ (Dianova) and ABTS (Roche) was used as a HRP-substrate.
(§3) As negative controls the scaffold proteins TtSlyDcas and TgSlyDΔIF were used.

[8] = biological target: human HER2 Extracellular Domain (HER2 ECD) (human, UniProt P04626 23-652); test: ELISA, antigen coated, hybridoma supernatant
Protocol: as §2, §3

TgSlyDΔIF = biological target: T9, TgSlyDΔIF; test: ELISA, antigen coated, hybridoma supernatant
T9 construct: negative control scaffold without insert (Thermococcus gammatolerans SlyD); also called TgSlyDAIF
T9 chain: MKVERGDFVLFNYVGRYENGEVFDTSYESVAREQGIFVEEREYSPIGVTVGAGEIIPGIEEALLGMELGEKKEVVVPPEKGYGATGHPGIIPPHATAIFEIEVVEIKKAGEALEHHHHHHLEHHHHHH
Protocol: as §2, §3

TtSlyDcas = biological target: T10, TtSlyDcas; test: ELISA, antigen coated, hybridoma supernatant
T10 construct: negative control scaffold without the HER3 β-hairpin
T10 chain: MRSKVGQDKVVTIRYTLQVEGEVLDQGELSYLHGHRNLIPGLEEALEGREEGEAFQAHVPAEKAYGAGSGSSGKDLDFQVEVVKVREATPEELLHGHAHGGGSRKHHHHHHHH
Protocol: as §2, §3

[9] = biological target: T11, human recombinant HER4 Extracellular Domain (HER4 ECD) (human, UniProt Q15303 26-651); test: ELISA, antigen coated, hybridoma supernatant
T11 sequence: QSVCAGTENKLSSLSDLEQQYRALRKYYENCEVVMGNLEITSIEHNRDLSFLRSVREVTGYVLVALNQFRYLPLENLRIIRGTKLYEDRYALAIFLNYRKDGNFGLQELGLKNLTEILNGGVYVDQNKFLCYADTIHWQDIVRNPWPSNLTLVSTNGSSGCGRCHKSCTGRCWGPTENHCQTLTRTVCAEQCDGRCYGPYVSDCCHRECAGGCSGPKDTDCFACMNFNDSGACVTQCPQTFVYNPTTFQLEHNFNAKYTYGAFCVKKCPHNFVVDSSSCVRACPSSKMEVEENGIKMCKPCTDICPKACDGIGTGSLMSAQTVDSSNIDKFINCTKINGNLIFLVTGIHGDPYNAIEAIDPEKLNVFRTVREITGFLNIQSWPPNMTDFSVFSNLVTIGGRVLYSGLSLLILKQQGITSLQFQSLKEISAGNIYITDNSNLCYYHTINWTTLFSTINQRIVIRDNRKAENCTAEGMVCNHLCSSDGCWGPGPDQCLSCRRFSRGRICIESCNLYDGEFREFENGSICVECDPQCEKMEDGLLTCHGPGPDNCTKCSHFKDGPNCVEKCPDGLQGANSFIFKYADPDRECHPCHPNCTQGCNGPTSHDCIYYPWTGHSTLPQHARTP
Protocol: as §2, §3

TgSlyDcys-Her3 = biological target: T12, TgSlyDcys-Her3; test: ELISA, antigen coated, hybridoma supernatant
T12 chain: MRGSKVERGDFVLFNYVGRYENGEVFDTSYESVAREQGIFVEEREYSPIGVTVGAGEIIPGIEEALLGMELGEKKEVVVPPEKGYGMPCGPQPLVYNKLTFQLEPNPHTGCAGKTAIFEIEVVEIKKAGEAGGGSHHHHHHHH
Protocol: as §2, §3

TgSlyDser-Her3 = biological target: T13, TgSlyDser-Her3; test: ELISA, antigen coated, hybridoma supernatant
T13 chain: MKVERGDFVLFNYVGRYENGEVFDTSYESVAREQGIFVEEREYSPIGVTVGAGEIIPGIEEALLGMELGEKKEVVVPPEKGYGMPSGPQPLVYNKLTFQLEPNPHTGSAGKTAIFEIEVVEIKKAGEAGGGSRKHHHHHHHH
Protocol: as §2, §3

[10] = biological target: T2, human recombinant HER3 Extracellular …; test: ELISA, antigen coated, hybridoma supernatant
Protocol: as §2, §3

TtSlyDcas-Her3 = biological target: T14, TtSlyDcas-Her3; test: ELISA, antigen coated, hybridoma supernatant
T14 chain: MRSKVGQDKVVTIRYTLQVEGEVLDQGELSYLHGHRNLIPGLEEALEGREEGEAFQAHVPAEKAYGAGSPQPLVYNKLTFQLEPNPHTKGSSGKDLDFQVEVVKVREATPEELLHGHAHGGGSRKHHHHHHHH
Protocol: as §2, §3

TtSlyDcys-Her3 = biological target: T15, TtSlyDcys-Her3; test: ELISA, antigen coated, hybridoma supernatant
T15 chain: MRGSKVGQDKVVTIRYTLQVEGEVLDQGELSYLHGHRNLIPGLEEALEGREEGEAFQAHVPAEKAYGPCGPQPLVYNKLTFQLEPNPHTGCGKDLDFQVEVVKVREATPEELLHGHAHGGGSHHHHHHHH
Protocol: as §2, §3

[11] = biological target: T16, HER2, full length, on cells (transfected HEK293, MCF7) (human, UniProt P04626 23-1255); test: IHC on HEK293 cells transiently transfected with full length HER2
Protocol: as §1

[12] = biological target: T16, HER2, full length, on cells …; test: IHC on fixed transfected HEK293 cells
Protocol: as §1

[13] = biological target: T6, HER1, full length, on transfected …; test: IHC on fixed transfected HEK293 cells
Protocol: as §1

[14] = biological target: T7, HER4, full length, on transfected …; test: IHC on fixed transfected HEK293 cells
Protocol: as §1

| Binder | OD 405 nm [7] [OD] | binding result [7] | OD 405 nm [8] [OD] | binding result [8] | OD 405 nm (TgSlyDΔIF) [OD] | OD 405 nm (TtSlyDcas) [OD] | OD 405 nm [9] [OD] | binding result [9] | OD 405 nm (TgSlyDcys-Her3) [OD] | OD 405 nm (TgSlyDser-Her3) [OD] | OD 405 nm [10] [OD] | OD 405 nm (TtSlyDcas-Her3) [OD] | OD 405 nm (TtSlyDcys-Her3) [OD] | also measured |
| --- | --- | --- | --- | --- | --- | --- | --- | --- | --- | --- | --- | --- | --- | --- |
| Europium-labeled Heregulin-beta (PeproTech, Cat. #100-03) (ligand, also: europium label, position not given here, bought fragment; also called HRG; Human Heregulin β-1 fragment (as provided from Preprotech)) SHLVKCAEKEKTFCVNGGECFMVKDLSNPSRYLCKCPNEFTGDRCQNYVMASFYKHLGIEFMEAE | – | – | – | – | – | – | – | – | – | – | – | – | – | binding result (SBP-tagged HER3-ECD): binds |
| anti-HER3 antibody MOR09823 (described in WO2012/22814) (antibody, V domains shown) VH: QVQLVESGGGLVQPGGSLRLSCAASGFTFSSYAMSWVRQAPGKGLEWVSVTGAVGRTYYPDSVKGRFTISRDNSKNTLYLQMNSLRAEDTAVYYCARWGDEGFDIWGQGTLVTVSS VL: DIQMTQSPSSLSASVGDRVTITCRASQGISNWLAWYQQKPGKAPKLLIYGASSLQSGVPSRFSGSGSGTDFTLTISSLQPEDFAVYYCQQYSSFPTTFGQGTKVEIKR | – | – | – | – | – | – | – | – | – | – | – | – | – | Kd [1]: 0.3 nM |
| anti-HER3/HER4 antibody M-05-74 (antibody, V domains shown, also called M-074; M-5-74) VH: QVQLQQSGAELAKPGASVKMSCKTSGYTLTDYWIHWVKQRPGQGLEWIGYINPYTGYTESNQKFKDKATLTADKSSNTAYIQLSSLTSEDSAVYYCARPYYYGDYWGQGTTLTVSS VL: QIVLTQSPAIMSASPGERVTITCSASSSVSYMHWFQQKPGTSPKLLIYSTSNLASGVPARFSGSGSGTSYSLTISRMEAEDAATYYCQQRSSYPFTFGSGTKLEIK | – | – | – | – | – | – | – | – | – | – | – | – | – | binding result [2]: no binding (tested: 1 µg/mL); binding result [3]: no binding (tested: 1 µg/mL); t½ diss [4]: 18 min |
| anti-HER3 antibody M-17-07 (antibody, V domains shown, mouse hybridoma clone) VH: EVQLQQSGTVLARPGASVKMSCKASGYSFTSYWIHWVKQRPGQGLEWIGAIYPGNSDTTYNQKFKGKAKLTAVTSASTAYMELSSLTNEDSAVYYCARTGVWTSYYFDYWGQGTTLTVSS VL: DIQMTQSPASLSASVGETVTITCRASENIYSNLAWYQQKQGKSPQLLVYAATNLADGVPSRFSGSGSGTQFSLRINSLQPEDFGSYYCQHFYGTPFTFGTGTKLEIK | 0.025 | no binding | 0.03 | no binding | 0.021 | 0.022 | 0.03 | no binding | 1.62 | 1.4 | 3.1 | 1.4 | 1.53 | binding result [5]: no binding; binding result [6]: no binding; binding result [11]: no binding |
| anti-HER3 antibody M-17-12 (antibody, V domains shown, mouse hybridoma clone; VH and VL stated identical to those of M-17-02) VH: EVQLQQSGTVLARPGASVKMSCKASGYSFTSYWIHWVKQRPGQGLEWIGAIYPGNSDTTYNQKFKGKAKLTAVTSASTAYMELSSLTNEDSAVYYCARTGVWTSYYFDYWGQGTTLTVSS VL: DIQMTQSPASLSASVGETVTITCRASENIYSNLAWYQQKQGKSPQLLVYAATNLADGVPSRFSGSGSGTQFSLRINSLQPEDFGSYYCQHFYGTPFTFGTGTKLEIK | 0.022 | no binding | 0.023 | no binding | 0.022 | 0.022 | 0.051 | no binding | 1.37 | 1.66 | 3.06 | 1.31 | 1.53 | binding result [12]: no binding (tested: 1 µg/ml); binding result [13]: no binding (tested: 1 µg/ml); binding result [14]: no binding (tested: 1 µg/ml) |
